Measured values published in article PMC10671532, “Expanded Substrate Specificity in D-Amino Acid Transaminases: A Case Study of Transaminase from Blastococcus saxobsidens” (International Journal of Molecular Sciences, 2023).
Values belong to the molecule of their own block, whether it stands above or below them.

Key:
[1] = molecular target: T1, BlasaTA (transaminase from Blastococcus saxobsidens) (Blastococcus saxobsidens, UniProt H6RQF3); assay: half-reaction with PLP form, absorbance at […] nm, kobs fit; format: biochemical; conditions: pH 8.0, 50 mM K-phosphate, 30 °C, single half-reaction, read-out: 50 mM K-Phosphate Buffer, pH 8.0 / KD
T1 construct: gene BLASA_4517; codon-optimized gene in modified pET-21d; N-terminal His6 tag with TEV site kept for kinetics, cut for crystals; E. coli Rosetta (DE3) pLysS; homodimer ~60 kDa

[2] = molecular target: Recombinant D-amino acid transaminase from Blastococcus saxobsidens (BlasaTA), (His)6-tagged (Blastococcus saxobsidens (strain DD2)); assay: SEC; gel filtration of the purified enzyme; molecular weight approximately 60 kDa against 29.1 kDa for the subunit; conditions not shown
[3] = substrate: C[C@@H](N)C(=O)O; assay: purified protein; conditions: co-substrate 5 mM α-ketoglutarate, pH 8.0, 50 mM K-phosphate, 40 °C
[4] = substrate: CC(=O)C(=O)O; assay: purified protein; format: biochemical, Blastococcus saxobsidens; conditions: co-substrate 15 mM D-glutamate, pH 8.0, 50 mM K-phosphate, 40 °C
[5] = substrate: CC(C)CC(=O)C(=O)O; assay: purified protein; format: biochemical, Blastococcus saxobsidens; conditions: co-substrate 25 mM D-alanine, pH 8.0, 50 mM K-phosphate, 40 °C
[6] = substrate: C[C@@H](N)c1ccccc1; assay: purified protein; format: biochemical, Blastococcus saxobsidens; conditions: co-substrate 2 mM α-ketoglutarate, pH 9.0, 50 mM CHES, 30 °C
[7] = substrate: N[C@H](CCC(=O)O)C(=O)O; assay: purified protein; format: biochemical, Blastococcus saxobsidens; conditions: co-substrate 15 mM pyruvate, pH 8.0, 50 mM K-phosphate, 40 °C
[8] = substrate: O=C(O)CCC(=O)C(=O)O; assay: purified protein; format: biochemical, Blastococcus saxobsidens; conditions: co-substrate 25 mM D-alanine, pH 8.0, 50 mM K-phosphate, 40 °C

Kd [1]: 32 ± 2 mM
Molecule: N[C@H](Cc1ccccc1)C(=O)O [D-Phenylalanine]

stoichiometry N [2]: 2
Molecule: Recombinant D-amino acid transaminase from Blastococcus saxobsidens (BlasaTA), (His)6-tagged (enzyme)

Kd [1]: 19 ± 2 mM
Molecule: C[C@@H](N)c1ccccc1 [(R)-1-Phenylethyl amine]

B1: BlasaTA (transaminase from Blastococcus saxobsidens) (Blastococcus saxobsidens DD2) (protein)
chain: MNEQRSVAVWRDGAAVTVPAHQPVVTAFDLGLGRGDGIFESVAVVAGRTPHLAAHLTRLTRSAALLGLPAPGDQAWMEMVAAVLADWPAALEGVCRLFLTRGLGDGTPPTALALLAPVPADTLRQRAEGISVATLGLGVPADFRAGAPWLLGGAKTLSYAVNMAAQRHAHDLGADDVVFTSLEGRLLEGPTSTVVWAAGGTLHTPPVETGILPGTTQARLFTAAAADGWPTSVTPGTVDDLHAADAVWLLSGVRGAAVVHTVDGVRRGDGDLSRRVRELLAR
notes: codon-optimized gene in modified pET-21d; N-terminal His6 tag with TEV site kept for kinetics, cut for crystals; E. coli Rosetta (DE3) pLysS; homodimer ~60 kDa
Km [3]: 2000 ± 300 µM
kcat [3]: 8.1 s⁻¹
kcat/Km [3]: 4000 M⁻¹ s⁻¹
Km [4]: 1600 ± 100 µM
kcat [4]: 7.5 ± 0.3 s⁻¹
kcat/Km [4]: 4700 ± 500 M⁻¹ s⁻¹
Km [5]: 45000 ± 2000 µM
kcat [5]: 0.19 ± 0.004 s⁻¹
kcat/Km [5]: 4.2 ± 0.3 M⁻¹ s⁻¹
Km [6]: 6600 ± 400 µM
kcat [6]: 0.053 ± 0.002 s⁻¹
kcat/Km [6]: 8 ± 0.8 M⁻¹ s⁻¹
Km [7]: 400 ± 60 µM
kcat [7]: 7.5 ± 0.3 s⁻¹
kcat/Km [7]: 18800 ± 3600 M⁻¹ s⁻¹
Km [8]: 530 ± 60 µM
kcat [8]: 8.1 ± 0.3 s⁻¹
kcat/Km [8]: 15300 ± 2300 M⁻¹ s⁻¹
